In a protein production outcome set (Wang et al. 2014):

assay: label from the status in PepcDB records
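Note: failed if final PepcDB status was selected cloned or expressed and not failed if soluble or beyond.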

For “MNLDKVNKYIKDFEKTIKKPKINFDKSKFYVGVDLGTANIVITILDKDGKPVAGVTQRSRVVRDGIVVDFMEAIEIVRKLKENLEKKLGIEITEGYTAIPPGVEQGSVRAIVNVIESAGIDVLKVVDEPTAASYVLGITDGVVVDLGGGTTGISILEKGKVIFVADEPTGGTHMTLVLAGSYGIDFETAEDIKTDKKKEKEVFVQITPVLQKMAAIVKKYIKDYKVKDVFLVGGACSFDGSESIFERELGLNIYKPYMPVYITPLGIALAGMKSLEHHHHHH”, which protein production is on record?
The protein production was “not failed”.

Which protein production does the source give for “MNLEHHSNHYQPTCSIEALQARAKLYQTIRTFFAERGVLEVETPIISQAGVTDVHLASVKALRHIEGKERTQYLQTSPEFAMKRLLASGSGPIYQLCKVFRDDEHGRKHNSEFTMLEWYRPEFDLKDLMHETADLLETCLKQRFDEIRPMILSYKHAFQDRLEINPLQATLKQLKDTADRVGLNLDLGNDRLAYIDLLFSHIVEPSLGFDTPVFLTDFPPEMASLAKVRIDEDGEEVAARFEVYIEGLELANAYDELLDANILRARFEADNLERKLQGLAEMPLDENLLAALPHMPACAGIALGVDRLLMIATRQLKIEQVIAFPAAIA” here?
Its protein production is “failed”.

For “MNLEPPKAEIRSATRVMGGPVTPRKGPPKFKQRQTRQFKSKPPKKGVQGFGDDIPGMEGLGTDITVICPWEAFNHLELHELAQYGII”, which protein production is on record?
Its protein production is “not failed”.

For “MNLESITVVLPTRNEAGNIGAFLASLPQAVHLIVVDASEDETPDIIQRERPARTQVLRRRSTITQARQLGAEAALTDWLLFTDADIVFPDGYFDALERVMDAAVVYGPKLSRDRFAAYYRWFGYGQQCSHWLGIPAATGSNLLVRKDALIAVGGFDPALVCNEDSELVWRIKRAGYRIRFEPSLPVYARDHRRLDSGLWRKTCHSVFRCALLYWDLMPARWRGADWGYWSPQQSGRAPGVSRVELEHHHHHH”, which protein production is on record?
The protein production was “failed”.

With “MNLGQWIGLIALILSLYILWQIKEVLLLMFAAVVLATTLNRLAKRFQRSGMKRGWAVMLAVAIFFAVVVGFFWLIVPPFAEQFNELTYRVPQGFERFNAWINELRTRIPAQLVPYIPDLNSLIQQAQPFINRVLGSSFAIVSGSLEVVLKVLLVLVLTGMLLADPIAYRKVFVRLFPSFYRRRVDGILDQCEVSLEGWVTGAVIAMGVVGLMSVVGLSILGVKAALALGVLAGFLNLIPNLGPTLSVVPAMAIALLDSPWKVVAVLILYFIIQQAESNFITPIVMAQQVSLLPAVTLISQLFFVTFFGFLGLFLALPLTVVAKIWVQEVLIKDVLDEWGHDHSQESELVMVSHYSEGDDHWSDDKQANKPTDDTVSQED” as the sequence, how does the protein production read?
The protein production was “failed”.

For “MNLHSRQDEGPIPSGNPYALSLSMSAILAPFKKIYDLIDGFVLIMLTAIGIALIAPEIGTGDGPLRLGVVTNLGVALVFFLHGAALSRDKLVAGAKHWRLHVFVQSFTYIVFPIVGVLLMLSLRNTLPPELLLGVFYLCALPSTVSSSVAMTSMARGNVPGAIFNATISGLIGMALTPLLMGLVISASGASMPLGRALMGVALQLLLPFALGQAARPLIGNWLAKKKQITNKIDRGVIVLIVYSSFCDATAAGLWHQYHWQTIGAVMGIAAVLLFVILGTTTFTARRLGFSVEDEITAVFCGSKKSLANGIPMAKILFAGHPALGLLVLPLMVYHQLQLIVCSVIAARYANRDDVETREAVRA”, which protein production is on record?
Its protein production is “failed”.

For “MNLINMSNFTSGRRLLRFAVVADSHLNPVNAGNTSPWQTNHLANPRNEVVVAAINRIAPAFTVHVGDVVHPLPHSTDYDGAADFATTLYRGLQAPFYIAPGNHDIGDKHLPGNPAACISADSCGKYEQHFGAQWQAFTEGNVCFIIINACLLGSGLPQEDAQWQFLQSRLAEEKAAGRRLFLFTHYPPFVTAPDEENHYDNIDHGPRRRLLELTASAGVEALFAGHVHTFFLNRHAGMWSYALPSSTNFRQDYAELFRVEPGEELGRNDLGKFGFFVVDIHEHGHIARFVRTYGSTDPAQGEEIALQVEGDVREHAAGTVAADFRHDWARVEALPYNPPLDAFVRKRVRNDYYILNLWDAGMRGVRLPIHDIADEQAFERVRLLGELGHRCLVFGTAVPDAHLLERLASLGPALEGYEWIGPDSAIAAHAAGQFARRGIRLFVAPVMQPPSSHSQGQYDHNMTSGIALGELDHLARFRPQRADASAPGVVVRIAGDEPVLESVRQAVEQAASHGVAIALHINLANRKSALVNDDDQAQAARVAEAAIAKAAYPDVPMTLDTFMDIDRGYFARHGLVDRRNNPRPAATVLRRLSERLRGHAVRIGAITREPAQSTVRIALGDQTLDVRIGRDISF”, which protein production is on record?
The protein production was “failed”.

For “MNLKDLLAHRENLMDSAKRARSAITDDMDPADAAQAVENVKSIISEIESTDEAIAARRGVSDVTQKLKGLTITERGTENDSAASRSLGEHFVKAAGDRLKNQAAGAHIEYSVPEYQVKEDAHSSPKDLVEGWGTFYQR”, which protein production is on record?
Its protein production is “not failed”.

With “MNLKQAFIDNNSIRLGLSADTWQEAVRLAVQPLIDSKAVTSAYYDAIIASTEKYGPYYVLMPGMAMPHAEAGLGVNRNAFALITLTKPVTFSDGKEVSVLLTLAATDPSIHTTVAIPQIVALFELDNAIERLVACQSPKEVLEMVEESKDSPYLEGMDLNA” as the sequence, how does the protein production read?
The protein production was “not failed”.

Which protein production does the source give for “MNLLIKINPVTRIIALMVLTTPLLLSLDVMSAAIALVATIILAPFAGVTWKMLLKRGWMLFLMAPVAALSMALYGRPDGKEYFSFLLIHVTDNSLALAAAIGLRVLAIGLPVVVLIARIDPTDLGDGLAQLLKLPERFVIGAVAGSRLMTLFREDWYSMSRARRARGIADQGKIKHFFTMTFGLLVLSLRRGSKLATAMEARGFGRTTGRTWARESTVGARDLVLILVCAAISAIALTVSIQTGFFKFLGT” here?
Its protein production is “failed”.

With “MNLLVTSSLGVLLHLVVLCQADDHSELLVNTKSGKVMGTRVPVLSSHISAFLGIPFAEPPVGNMRFRRPEPKKPWSGVWNASTYPNNCQQYVDEQFPGFSGSEMWNPNREMSEDCLYLNIWVPSPRPKSTTVMVWIYGGGFYSGSSTLDVYNGKYLAYTEEVVLVSLSYRVGAFGFLALHGSQEAPGNVGLLDQRMALQWVHDNIQFFGGDPKTVTIFGESAGGASVGMHILSPGSRDLFRRAILQSGSPNCPWASVSVAEGRRRAVELGRNLNCNLNSDEELIHCLREKKPQELIDVEWNVLPFDSIFRFSFVPVIDGEFFPTSLESMLNSGNFKKTQILLGVNKDEGSFFLLYGAPGFSKDSESKISREDFMSGVKLSVPHANDLGLDAVTLQYTDWMDDNNGIKNRDGLDDIVGDHNVICPLMHFVNKYTKFGNGTYLYFFNHRASNLVWPEWMGVIHGYEIEFVFGLPLVKELNYTAEEEALSRRIMHYWATFAKTGNPNEPHSQESKWPLFTTKEQKFIDLNTEPMKVHQRLRVQMCVFWNQFLPKLLNATACDGELSSSGTSSSKGIIFYVLFSILYLIF” as the sequence, how does the protein production read?
Its protein production is “not failed”.

Which protein production does the source give for “MNLPKKVRLVEVGPRDGLQNEKQPIEVADKIRLVDDLSAAGLDYIEVGSFVSPKWVPQMAGSAEVFAGIRQRPGVTYAALAPNLKGFEAALESGVKEVAVFAAASEAFSQRNINCSIKDSLERFVPVLEAARQHQVRVRGYISCVLGCPYDGDVDPRQVAWVARELQQMGCYEVSLGDTIGVGTAGATRRLIEAVASEVPRERLAGHFHDTYGQALANIYASLLEGIAVFDSSVAGLGGCPYAKGATGNVASEDVLYLLNGLEIHTGVDMHALVDAGQRICAVLGKSNGSRAAKALLAKA” here?
Its protein production is “not failed”.

For “MNLPPNPVIARGRGRGRKPNNVEANRGFAPSLGQKSDPSHSEGNQASGGNGGGGDAQVGPSIEKSSLSAVQMHKSEGDPRGSVRGRRLITDLVYSRPPGMTSKKGVVGTHITVQANYFKVLKRPNWTIYQYRVDFTPDVEATRLRRSFLY”, which protein production is on record?
Its protein production is “failed”.

For “MNLQNWKLSEYVCAVENLSYTEFFRIIEYANDAGIPVNFVTNGTLITEEFVKKLSELNIGSVQVSLDGSKPEIMDRLRGNGIFHRAINSIKRLIDYGINTSVAFCATRINIRDFPNVVELASKLGVFEVRSMYFVPETEAHIKLAPSESQYKELLQWIYDN”, which protein production is on record?
The protein production was “failed”.

For “MNLVETAQAIKTGKVSLGIELGSTRIKAVLITDDFNTIASGSYVWENQFVDGTWTYALEDVWTGIQQSYTQLAADVRSKYHMSLKHINAIGISAMMHGYLAFDQQAKLLVPFRTWRNNITGQAADELTELFDFNIPQRWSIAHLYQAILNNEAHVKQVDFITTLAGYVTWKLSGEKVLGIGDASGVFPIDETTDTYNQTMLTKFSQLDKVKPYSWDIRHILPRVLPAGAIAGKLTAAGASLLDQSGTLDAGSVIAPPEGDAGTGMVGTNSVRKRTGNISVGTSAFSMNVLDKPLSKVYRDIDIVMTPDGSPVAMVHVNNCSSDINAWATIFHEFAARLGMELKPDRLYETLFLESTRADADAGGLANYSYQSGENITKIQAGRPLFVRTPNSKFSLPNFMLTQLYAAFAPLQLGMDILVNEEHVQTDVMIAQGGLFRTPVIGQQVLANALNIPITVMSTAGEGGPWGMAVLANFACRQTAMNLEDFLDQEVFKEPESMTLSPEPERVAGYREFIQRYQAGLPVEAAAGQAIKYLEHHHHHH”, which protein production is on record?
Its protein production is “not failed”.

Which protein production does the source give for “MNLVQAFLLSFTAFFAIMNPFANLPMFVSLTADNNRKEVDAIARLAFIVATVIVALFALLGNYIFSIFGINLSALRIMGGIILGLIGYHMIQGNVSPIQHDPKQSVKDSINSNNTDVAISPLAMPVLAGPGTIATTMNLSSSTNPFIVISAFVVLSVITYFIFIYGEQIMAKLGNNIMNVITKLMGLILATIGVRMLIMGVQVAFHW” here?
The protein production was “failed”.

Which protein production does the source give for “MNLVQDKVTIITGGTRGIGFAAAKIFIDNGAKVSIFGETQEEVDTALAQLKELYPEEEVLGFAPDLTSRDAVMAAVGQVAQKYGRLDVMINNAGITSNNVFSRVSEEEFKHIMDINVTGVFNGAWCAYQCMKDAKKGVIINTASVTGIFGSLSGVGYPASKASVIGLTHGLGREIIRKNIRVVGVAPGVVNTDMTNGNPPEIMEGYLKALPMKRMLEPEEIANVYLFLASDLASGITATTVSVDGAYRP” here?
Its protein production is “not failed”.

With “MNMKKIFKRTSLLLATALIGVTATVQAQKSPQDMDRFIDALMRRMTVEEKIGQLNLPVTGEITTGQAKSSDVAKKIEQGLVGGLFNLKGVAKIRDVQKLAVENSRLGIPLLFGMDVIHGYETIFPIPLGLSCTWDMAAIEQSARIAATEASADGISWTFSPMVDISRDPRWGRVSEGSGEDPFLGGAIARAMVLGYQGKDPDDQLKRNDEIMACVKHFALYGAGEAGRDYNTVDMSRNRMFNEYMYPYEAAVRAGVGSAMASFNEVDGVPATANHWLMTDVLRKQWGFNGFVVTDFTGISEMVEHGIGNLQTVSTRALNAGVDMDMVSEGFVGTLKKSLTEGKITMKTLDAACRRILEAKYKLGLFDDPYKYCDLSRPARDIFTREHRAAARRIAAESFVLLKNEPFEGQGKKSSRPVLPLEKQGTVAVIGPLGNTRSNMPGTWSVAARLDDYPSLYEGLKEMTASRVNITYAKGSNLISDAAYEERATLFGRSLNRDNRTDKKLLDEALKVASGADVIVAALGESSEMSGESSSRTDLGIPDVQRTLLEALLKTGKPVVLTLFTGRPLTLTWEQEHVPAILNVWFGGSEAAYAIGDVLFGDVNPSGKLTMTFPKNVGQIPLFYNHKNTGRPLAEGKWFEKFRSNYLDVDNEPLYPFGYGLSYTTFRYSDIALSTPVMGQNGSTTAVVTVTNTGKRDGAEVVQLYIRDLVGSITRPVRELKGFEKVFLKAGESKTVSFKITPELLRFYDYDLNHVAEPGDFDVMIGGSSQAEKTARLTLK” as the sequence, how does the protein production read?
The protein production was “failed”.

For “MNMYRVLLIILGWISVVLATLGVVLPLLPTTPFLLLAAWCFARSSPRFHNWLLHRSWFGSYLRHWQQHRALPPGAKWKAVTMILLTFALSLWLVKLVWVRILLLVILTILLTFMLRLPVVDPEQQTQGADPKR”, which protein production is on record?
Its protein production is “failed”.

Which protein production does the source give for “MNNIAAIVVTYNRKKLLKKCIKGLKEQTEKADIIIIDNMSTDGTLEMLQPLINSNEIIYHSTGKNIGGAGGFYEGIKLAYEMGYKYFWLMDDDCIPTSSALEKLMNVVNEKKNFGFLVSKALWKDGEVCKMNIPKIKLTKQVNDFSKKVIQIKMGTFVSFLTSREVVEKVGLPIKEFFIWGDDLEYSQRISQKFPSYLVTNSLVYHETKLNEGSNIALDSVDRLKRYKLAYRNEVVLFKEMGLQGQMYQYFRLVLHCGRILFKSKDHKKERLNIIFQGTRAGYNFHPVIKNIK” here?
The protein production was “failed”.
